# Patent US7087215B2 (priority 1998, dated 2006)
# Tests used:
# [1] = Plasma insulin levels by RIA method after injection or mouth spray in diabetic volunteers; assay type: in vivo, human
# Procedure: (§1) Ten diabetic volunteers were asked to fast overnight and not have any breakfast prior to dosing. On the first day, the volunteers were given 10 units insulin by injection (regular fast acting insulin, obtained from Eli Lilly). On the second day, the volunteers were given 60 units insulin of this example (10 puffs of 6 units each) into the mouth, without inhalation. Plasma insulin levels were measured at intervals by the RIA method for 3 hours. Blood glucose levels were also monitored at intervals using Bayer's glucometer Elite for 3 hours.
# (§2) Tests were also conducted with 40 units of spray at 10 puffs each, and compared to 10 units injected by measuring plasma levels and glucose levels as above. The results are shown in Table 7 (plasma) and 8 (glucose).
# as §1, with “injection.” for “injection (regular fast acting insulin, obtained from Eli Lilly).”
# (§3) On the first day, each patient had 7 units regular fast acting insulin, obtained from Eli Lilly, administered by injection. On the second day, each patient was given 70 units of the insulin formulation of this Example (7 puffs of 10 unit each) into the mouth, without inhalation. Blood samples were collected and plasma glucose levels were measured at intervals using Bayer's glucometer Elite for 3 hours. Insulin levels were also monitored at intervals by the RIA method for 3 hours.
# [2] = system: blood glucose levels; experiment: Blood glucose levels by Bayer's glucometer Elite after injection or mouth spray in fasted diabetic volunteers; assay type: in vivo, human
# Procedure: as §1, §2
# as §1, with “injection.” for “injection (regular fast acting insulin, obtained from Eli Lilly).”
# as §3
# [3] = time 0 min, insulin 10 units by injection, Example 2 60 units by mouth spray, average of ten fasted diabetic volunteers
# [4] = time 0 min, insulin 10 units by injection, Example 3 60 units by mouth spray, average of ten fasted diabetic volunteers
# [5] = time 0 min, insulin 10 units injected, Example 2 40 units of spray, measured as above
# [6] = time 15 min, insulin 10 units by injection, Example 2 60 units by mouth spray, average of ten fasted diabetic volunteers
# [7] = time 15 min, insulin 10 units by injection, Example 3 60 units by mouth spray, average of ten fasted diabetic volunteers
# [8] = time 15 min, insulin 10 units injected, Example 2 40 units of spray, measured as above
# [9] = time 30 min, insulin 10 units by injection, Example 2 60 units by mouth spray, average of ten fasted diabetic volunteers
# [10] = time 30 min, insulin 10 units by injection, Example 3 60 units by mouth spray, average of ten fasted diabetic volunteers
# [11] = time 30 min, insulin 10 units injected, Example 2 40 units of spray, measured as above
# [12] = time 45 min, insulin 10 units by injection, Example 2 60 units by mouth spray, average of ten fasted diabetic volunteers
# [13] = time 45 min, insulin 10 units by injection, Example 3 60 units by mouth spray, average of ten fasted diabetic volunteers
# [14] = time 60 min, insulin 10 units by injection, Example 2 60 units by mouth spray, average of ten fasted diabetic volunteers
# [15] = time 60 min, insulin 10 units by injection, Example 3 60 units by mouth spray, average of ten fasted diabetic volunteers
# [16] = time 60 min, insulin 10 units injected, Example 2 40 units of spray, measured as above
# [17] = time 90 min, insulin 10 units by injection, Example 2 60 units by mouth spray, average of ten fasted diabetic volunteers
# [18] = time 90 min, insulin 10 units by injection, Example 3 60 units by mouth spray, average of ten fasted diabetic volunteers
# [19] = time 90 min, insulin 10 units injected, Example 2 40 units of spray, measured as above
# [20] = time 120 min, insulin 10 units by injection, Example 2 60 units by mouth spray, average of ten fasted diabetic volunteers
# [21] = time 120 min, insulin 10 units by injection, Example 3 60 units by mouth spray, average of ten fasted diabetic volunteers
# [22] = time 120 min, insulin 10 units injected, Example 2 40 units of spray, measured as above
# [23] = time 150 min, insulin 10 units by injection, Example 2 60 units by mouth spray, average of ten fasted diabetic volunteers
# [24] = time 150 min, insulin 10 units by injection, Example 3 60 units by mouth spray, average of ten fasted diabetic volunteers
# [25] = time 150 min, insulin 10 units injected, Example 2 40 units of spray, measured as above
# [26] = time 180 min, insulin 10 units by injection, Example 2 60 units by mouth spray, average of ten fasted diabetic volunteers
# [27] = time 180 min, insulin 10 units by injection, Example 3 60 units by mouth spray, average of ten fasted diabetic volunteers
# [28] = time 180 min, insulin 10 units injected, Example 2 40 units of spray, measured as above
substance,measurement,setting,value
insulin,Plasma insulin level,[1]; [3],10 micromoles per ml
same,Plasma insulin level,[1]; [4],9 micromoles per ml
same,Plasma insulin level,[1]; [5],9 micromoles per ml
same,Plasma insulin level,[1]; [6],9.1 micromoles per ml
same,Plasma insulin level,[1]; [7],9.1 micromoles per ml
same,Plasma insulin level,[1]; [8],9 micromoles per ml
same,Plasma insulin level,[1]; [9],11 micromoles per ml
same,Plasma insulin level,[1]; [10],14 micromoles per ml
same,Plasma insulin level,[1]; [11],13 micromoles per ml
same,Plasma insulin level,[1]; [12],16 micromoles per ml
same,Plasma insulin level,[1]; [13],20 micromoles per ml
same,Plasma insulin level,"[1]; time 45 min, insulin 10 units injected, Example 2 40 units of spray, measured as above",19 micromoles per ml
same,Plasma insulin level,[1]; [14],31 micromoles per ml
same,Plasma insulin level,[1]; [15],40 micromoles per ml
same,Plasma insulin level,[1]; [16],34 micromoles per ml
same,Plasma insulin level,[1]; [17],45 micromoles per ml
same,Plasma insulin level,[1]; [18],48 micromoles per ml
same,Plasma insulin level,[1]; [19],45 micromoles per ml
same,Plasma insulin level,[1]; [20],32 micromoles per ml
same,Plasma insulin level,[1]; [21],39 micromoles per ml
same,Plasma insulin level,[1]; [22],42 micromoles per ml
same,Plasma insulin level,[1]; [23],25 micromoles per ml
same,Plasma insulin level,[1]; [24],34 micromoles per ml
same,Plasma insulin level,[1]; [25],35 micromoles per ml
same,Plasma insulin level,[1]; [26],20 micromoles per ml
same,Plasma insulin level,[1]; [27],27 micromoles per ml
same,Plasma insulin level,[1]; [28],24 micromoles per ml
same,Blood glucose level,[2]; [3],6.1 millimoles per liter
same,Blood glucose level,[2]; [4],6.6 millimoles per liter
same,Blood glucose level,[2]; [5],5.8 millimoles per liter
same,Blood glucose level,[2]; [6],6.0 millimoles per liter
same,Blood glucose level,[2]; [7],6.5 millimoles per liter
same,Blood glucose level,[2]; [8],6.0 millimoles per liter
same,Blood glucose level,[2]; [9],5.9 millimoles per liter
same,Blood glucose level,[2]; [10],6.1 millimoles per liter
same,Blood glucose level,[2]; [11],5.9 millimoles per liter
same,Blood glucose level,[2]; [12],5.5 millimoles per liter
same,Blood glucose level,[2]; [13],5.5 millimoles per liter
same,Blood glucose level,[2]; [14],5.1 millimoles per liter
same,Blood glucose level,[2]; [15],4.9 millimoles per liter
same,Blood glucose level,[2]; [16],5.5 millimoles per liter
same,Blood glucose level,[2]; [17],4.5 millimoles per liter
same,Blood glucose level,[2]; [18],4.5 millimoles per liter
same,Blood glucose level,[2]; [19],5.0 millimoles per liter
same,Blood glucose level,[2]; [20],3.8 millimoles per liter
same,Blood glucose level,[2]; [21],3.8 millimoles per liter
same,Blood glucose level,[2]; [22],4.5 millimoles per liter
same,Blood glucose level,[2]; [23],4.2 millimoles per liter
same,Blood glucose level,[2]; [24],3.5 millimoles per liter
same,Blood glucose level,[2]; [25],4.1 millimoles per liter
same,Blood glucose level,[2]; [26],4.4 millimoles per liter
same,Blood glucose level,[2]; [27],4.4 millimoles per liter
same,Blood glucose level,[2]; [28],3.9 millimoles per liter
